The term Kd denotes the equilibrium constant for the complex coming apart.

Test [1] has as its target Mouse NRP1 (Recombinant Mouse Neuropilin-1 Protein, CF) (mouse) (UniProt P97333). The test is described as follows: SPR; Pioneer SensiQ; mouse NRP1 immobilised on a Polycarboxylate High Capacity (PCH) chip in 10 mM sodium acetate pH 5.0 (2307 RU for mouse SEMA3A Fc, 1565 RU for human SEMA3A Fc); SEMA3A-Fc flowed over; running buffer 20 mM HEPES pH 7.5, 150 mM NaCl, 0.005% Tween-20; OneStep kinetics, single concentration (100 nM mouse or 50 nM human SEMA3A Fc), 75 ul/min. (In general: SPR reads the build-up and loss of mass on a sensor chip optically.)

The target in test [2] is T1, Mouse NRP1 (Recombinant Mouse Neuropilin-1 Protein, CF) (mouse, UniProt P97333 22-856).
T1 construct: Neuropilin-1, mouse, recombinant soluble protein; also called murine NRP1; mouse NRP1 receptor; source: bought: R&D Systems
T1 sequence (looked up): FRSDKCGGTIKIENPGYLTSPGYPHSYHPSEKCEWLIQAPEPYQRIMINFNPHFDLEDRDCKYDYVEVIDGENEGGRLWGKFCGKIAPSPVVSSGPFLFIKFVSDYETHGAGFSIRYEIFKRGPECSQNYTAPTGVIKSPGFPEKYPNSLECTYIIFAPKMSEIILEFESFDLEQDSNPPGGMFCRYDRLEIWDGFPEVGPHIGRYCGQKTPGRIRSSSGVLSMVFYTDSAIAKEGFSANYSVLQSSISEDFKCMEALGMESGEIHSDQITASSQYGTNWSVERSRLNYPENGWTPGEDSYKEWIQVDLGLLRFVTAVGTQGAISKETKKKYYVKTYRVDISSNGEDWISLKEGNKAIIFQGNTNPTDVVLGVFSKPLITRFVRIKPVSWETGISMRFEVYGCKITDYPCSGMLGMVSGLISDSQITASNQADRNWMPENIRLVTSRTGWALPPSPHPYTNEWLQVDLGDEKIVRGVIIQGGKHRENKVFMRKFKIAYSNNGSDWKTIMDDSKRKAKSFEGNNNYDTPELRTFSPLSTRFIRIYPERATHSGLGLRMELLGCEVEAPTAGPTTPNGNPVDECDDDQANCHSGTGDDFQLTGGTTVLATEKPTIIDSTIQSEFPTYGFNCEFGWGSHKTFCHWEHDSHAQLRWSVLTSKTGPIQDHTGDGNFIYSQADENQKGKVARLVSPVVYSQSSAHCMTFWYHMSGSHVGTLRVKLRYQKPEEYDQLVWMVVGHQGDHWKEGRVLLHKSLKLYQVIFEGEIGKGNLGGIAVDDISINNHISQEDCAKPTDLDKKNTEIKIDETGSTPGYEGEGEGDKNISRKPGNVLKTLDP
Described as above. Conditions: both partners purified.

For the molecule “recombinant human full length SEMA3A Fc (huSEMA3A, Lys26-Val771) (from UniProt Q14563 26-771) (Fc fusion)”, the dissociation constant (Kd) in test [1] turned out to be 1.8 nM.

B1: recombinant mouse SEMA3A Fc (muSEMA3A, Asn21-Lys747) (Fc fusion, UniProt O08665 21-747, looked up)
chain: NYANGKNNVPRLKLSYKEMLESNNVITFNGLANSSSYHTFLLDEERSRLYVGAKDHIFSFNLVNIKDFQKIVWPVSYTRRDECKWAGKDILKECANFIKVLEAYNQTHLYACGTGAFHPICTYIEVGHHPEDNIFKLQDSHFENGRGKSPYDPKLLTASLLIDGELYSGTAADFMGRDFAIFRTLGHHHPIRTEQHDSRWLNDPRFISAHLIPESDNPEDDKVYFFFRENAIDGEHSGKATHARIGQICKNDFGGHRSLVNKWTTFLKARLICSVPGPNGIDTHFDELQDVFLMNSKDPKNPIVYGVFTTSSNIFKGSAVCMYSMSDVRRVFLGPYAHRDGPNYQWVPYQGRVPYPRPGTCPSKTFGGFDSTKDLPDDVITFARSHPAMYNPVFPINNRPIMIKTDVNYQFTQIVVDRVDAEDGQYDVMFIGTDVGTVLKVVSVPKETWHDLEEILLEEMTVFREPTTISAMELSTKQQQLYIGSTAGVAQLPLHRCDIYGKACAECCLARDPYCAWDGSSCSRYFPTAKRRTRRQDIRNGDPLTHCSDLQHHDNHHGPSLEERIIYGVENSSTFLECSPKSQRALVYWQFQRRNEDRKEEIRMGDHIIRTEQGLLLRSLQKKDSGNYLCHAVEHGFMQTLLKVTLEVIDTEHLEELLHKDDDGDGSKIKEMSSSMTPSQKVWYRDFMQLINHPNLNTMDEFCEQVWKRDRKQRRQRPGHSQGSSNK
notes: Semaphorin 3A, mouse, Asn21-Lys747, truncated at the C-terminus (lacks the RNRR and RAPR stretches); also called Murine SEMA3A Fc; truncated murine SEMA3A; source: bought: R&D Systems
On to B1, for which the dissociation constant Kd in test [2] is approximately 4.4 nM.

The record behind these values is article PMC8635308, “Neuropilin 1 regulates bone marrow vascular regeneration and hematopoietic reconstitution” (Nature Communications, 2021).
